Laboratory results as given in the supplement of paper PMC12667976.
± gives the standard error.

B1: library; numbered along this chain (parent)
chain: MATDAALRRLLRLHRTEIAVAVDSAFPLLHALADHDVVPEDKFQETLHLKEKEGCPQAFHALLSWLLTQDSTAILDFWRVLFKDYNLERYGRLQPILDSFPKDVDLSQPRKGRKPPAVPKALVPPPRLPTKRKASEEARAAAPAALTPRGTASPGSQLKAKPPKKPESSAEQQRLPLGNGIQTMSASVQRAVAMSSGDVPGARGAVEGILIQQVFESGGSKKCIQVGGEFYTPSKFEDSGSGKNKARSSSGPKPLVRAKGAQGAAPGGGEARLGQQGSVPAPLALPSDPQLHQKNEDECAVCRDGGELICCDGCPRAFHLACLSPPLREIPSGTWRCSSCLQATVQEVQPRAEEPRPQEPPVETPLPPGLRSAGEEVRGPPGEPLAGMDTTLVYKHLPAPPSAAPLPGLDSSALHPLLCVGPEGQQNLAPGARCGVCGDGTDVLRCTHCAAAFHWRCHFPAGTSRPGTGLRCRSCSGDVTPAPVEGVLAPSPARLAPGPAKDDTASHEPALHRDDLESLLSEHTFDGILQWAIQSMARPAAPFPS

Variants of: B1
Experiment: AIRE transcriptional activation functional score (insulin promoter-GFP; nonsense median 0, synonymous median 1) (normalised score); higher = higher AIRE activity (more reporter activation)
Conditions: with insulin promoter-GFP reporter in HEK293
How it was run: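 Integration of codon-optimized AIRE NNN-codon libraries (three regions) by Bxb1 recombinase was done in Flp-In T-REx HEK293 landing-pad cells containing an insulin core promoter-GFP reporter. Tile-sequencing covered the top 10% GFP cells and the unselected integrants, drawn from mCherry+, BFP− cells sorted at day 7 and grown 7 days. Functional score means the enrichment of a variant in select versus non-select, minus that of wild type. Variants with at least 10 counts per million in non-select were rescaled to nonsense median 0 and synonymous median 1, and the biological replicates were averaged.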

AIRE transcriptional activation functional score, by site and new letter:
C449: H 0.515 ± 0.12 | M -0.542 ± 0.087 | Y 0.106 ± 0.096 | V 0.0568 ± 0.16 | S -0.103 ± 0.24 | I -0.224 ± 0.16 | E 0.0473 ± 0.093 | A -0.278 ± 0.3 | D 0.418 ± 0.038 | N -0.014 ± 0.099 | L 0.195 ± 0.21 | G 0.257 ± 0.22 | P 0.244 ± 0.13 | T 0.263 ± 0.08 | R 0.252 ± 0.31 | F 0.317 ± 0.12 | W 0.0652 ± 0.069 | Q 0.388 ± 0.15
D439: N 1.07 ± 0.088 | R 0.536 ± 0.33 | Y 1.35 ± 0.1 | L 0.586 ± 0.25 | V 0.869 ± 0.19 | Q 0.923 ± 0.33 | I 0.279 ± 0.21 | T 1.03 ± 0.33 | F -0.443 ± 0.34 | G 0.919 ± 0.15 | C 1.16 ± 0.086 | A 1.1 ± 0.4 | H 1.32 ± 0.28 | P 0.0529 ± 0.088 | W 1.2 ± 0.12 | S 0.93 ± 0.31 | K 0.809 ± 0.15 | E 0.881 ± 0.2
G435: A 1.16 ± 0.3 | C 1.18 ± 0.071 | R 1.03 ± 0.13 | W 0.957 ± 0.092 | S 0.74 ± 0.35 | M 0.379 ± 0.042 | L 0.516 ± 0.29 | K 1.2 ± 0.13 | F 0.364 ± 0.23 | Q 0.663 ± 0.11 | I 0.437 ± 0.3 | P 1.14 ± 0.28 | Y 0.365 ± 0.14 | H 0.284 ± 0.12 | V 0.849 ± 0.31 | N 0.945 ± 0.14 | T 0.0827 ± 0.33 | E 0.463 ± 0.17 | D -0.0125 ± 0.24
G438: C 1.25 ± 0.083 | F 0.712 ± 0.11 | E 0.922 ± 0.077 | M 1.31 ± 0.048 | I 1.08 ± 0.32 | S 1.24 ± 0.22 | A 1.21 ± 0.32 | W 1.26 ± 0.047 | T 0.646 ± 0.18 | R 1.1 ± 0.31 | D 0.196 ± 0.064 | P 0.303 ± 0.33 | N 0.938 ± 0.11 | L 0.0897 ± 0.28 | K 1.12 ± 0.044 | V 1.1 ± 0.27 | Q 1.23 ± 0.14
C437: K 0.35 ± 0.19 | I 0.106 ± 0.14 | R 0.0167 ± 0.12 | N 0.452 ± 0.035 | S 0.389 ± 0.13 | Q 0.296 ± 0.039 | Y 0.215 ± 0.15 | L 0.255 ± 0.17 | F 0.199 ± 0.17 | V 0.168 ± 0.1 | T 0.164 ± 0.18 | D 0.609 ± 0.19 | M -0.171 ± 0.072 | W 0.0698 ± 0.029 | E 0.473 ± 0.29 | A 0.0947 ± 0.07 | H 0.0985 ± 0.1 | P 0.172 ± 0.16 | G 0.0855 ± 0.11
R445: Q 0.898 ± 0.28 | I 0.985 ± 0.14 | H 0.423 ± 0.093 | A 0.543 ± 0.18 | C 0.188 ± 0.15 | K 1.17 ± 0.26 | P 0.738 ± 0.067 | T 0.578 ± 0.34 | W 0.804 ± 0.14 | F 0.192 ± 0.16 | S 0.952 ± 0.26 | V 0.784 ± 0.24 | N 1.25 ± 0.17 | G 0.978 ± 0.24 | L 0.998 ± 0.18 | E 0.42 ± 0.073 | D 0.596 ± 0.048
R433: Y 0.349 ± 0.15 | W 1.4 ± 0.071 | V 0.599 ± 0.19
V436: H 0.883 ± 0.41 | T 0.824 ± 0.31 | A 0.0856 ± 0.18 | I 1.35 ± 0.16 | F 1.11 ± 0.13 | G 0.916 ± 0.37 | K 1.21 ± 0.1 | S 0.217 ± 0.2 | E 0.492 ± 0.29 | Y 1.28 ± 0.29 | M 0.555 ± 0.13 | L 0.995 ± 0.26 | C 1.33 ± 0.37 | N 1.19 ± 0.082 | Q 0.854 ± 0.3 | P 0.39 ± 0.15 | R 0.525 ± 0.33 | D 0.874 ± 0.21
T447: F 0.707 ± 0.19 | N 1.26 ± 0.23 | L 1.2 ± 0.25 | C 0.201 ± 0.3 | E 0.425 ± 0.056 | W 1.32 ± 0.029 | S 1.29 ± 0.18 | M 1.49 ± 0.076 | Q 0.797 ± 0.062 | D 0.924 ± 0.24 | Y 0.458 ± 0.2 | A 1.02 ± 0.4 | I 1.4 ± 0.15 | G 1.03 ± 0.11 | R 0.679 ± 0.35 | V 1.18 ± 0.26
H448: P 0.0826 ± 0.074 | I 0.59 ± 0.049 | A 0.696 ± 0.075 | L 1.07 ± 0.17 | Y 1.26 ± 0.16 | N 1.18 ± 0.2 | S 0.0363 ± 0.091 | R 0.695 ± 0.34 | W 0.403 ± 0.12 | D 0.718 ± 0.11 | V 0.416 ± 0.19 | F 0.906 ± 0.038 | T 1.54 ± 0.085 | Q 1.05 ± 0.24
C446: P 0.448 ± 0.13 | F 0.403 ± 0.22 | K 0.294 ± 0.11 | R 0.0344 ± 0.14 | L 0.0671 ± 0.16 | T -0.0482 ± 0.24 | A 0.113 ± 0.089 | D -0.0826 ± 0.091 | E -1.3 ± 0.16 | G 0.144 ± 0.14 | I 0.167 ± 0.25 | M -0.496 ± 0.086 | Y -0.213 ± 0.15 | V -0.492 ± 0.2 | S -0.132 ± 0.15 | W -0.0678 ± 0.057 | Q -0.0282 ± 0.15
G440: P 1.25 ± 0.12 | V 1.3 ± 0.26 | E 0.195 ± 0.054 | A 0.417 ± 0.2 | L 0.997 ± 0.14 | D 0.799 ± 0.89 | Q 1.15 ± 0.066 | F 1.04 ± 0.35 | R 0.76 ± 0.21 | K 0.598 ± 0.11 | W 0.996 ± 0.03 | S 1.16 ± 0.4
T441: C 1.25 ± 0.14 | L 1.13 ± 0.093 | F 0.823 ± 0.34 | Q 1.35 ± 0.054 | V 0.851 ± 0.17 | P 1.13 ± 0.11 | S 1.02 ± 0.28 | G 0.478 ± 0.33 | W 1.57 ± 0.035 | E 0.676 ± 0.27 | D 0.0827 ± 0.34 | A 1.03 ± 0.36 | M 1.24 ± 0.095 | N 0.751 ± 0.16 | K 1.31 ± 0.051 | H 1.1 ± 0.27 | I 1.08 ± 0.17 | R 0.696 ± 0.32 | Y 1.12 ± 0.098
A450: L 1.22 ± 0.29 | E 1.24 ± 0.089 | H 1.43 ± 0.17 | D 1.48 ± 0.055 | V 1.19 ± 0.3 | F 1.24 ± 0.54 | Q 1.13 ± 0.17 | K -0.531 ± 0.21 | T 0.632 ± 0.29 | Y 0.311 ± 0.12 | G 0.382 ± 0.16 | S 0.883 ± 0.2 | I 1.2 ± 0.2 | C 0.795 ± 0.2 | R 1.4 ± 0.074 | P 0.565 ± 0.12 | N 1.35 ± 0.14
D442: C 0.845 ± 0.059 | Q 1.03 ± 0.076 | H 0.38 ± 0.23 | G 1.08 ± 0.099 | L 0.0551 ± 0.12 | T 0.24 ± 0.072 | R 0.257 ± 0.081 | K 0.322 ± 0.1 | E 0.869 ± 0.1 | V -0.000931 ± 0.14 | F -0.04 ± 0.047 | W -0.0188 ± 0.023 | P 0.0269 ± 0.18 | A 0.791 ± 0.17 | N 0.93 ± 0.046 | S 0.83 ± 0.2 | I -0.0637 ± 0.095 | M 0.124 ± 0.025 | Y 0.265 ± 0.11
A451: E 1.02 ± 0.12 | K 0.893 ± 0.1 | P 0.142 ± 0.14 | Q -0.927 ± 0.22 | G 0.686 ± 0.21 | F -0.0649 ± 0.075 | W 0.516 ± 0.2 | S 0.496 ± 0.4 | D 0.631 ± 0.11 | H 0.282 ± 0.15 | I 0.663 ± 0.18 | N 0.582 ± 0.09 | Y 0.593 ± 0.28 | V 0.438 ± 0.078 | R 1.19 ± 0.44 | L 0.76 ± 0.37 | T 0.528 ± 0.23
C434: M 0.34 ± 0.084 | V 0.211 ± 0.13 | A 0.14 ± 0.15 | R 0.0925 ± 0.12 | G 0.163 ± 0.16 | F 0.223 ± 0.047 | I 0.0869 ± 0.1 | K -0.158 ± 0.1 | L 0.207 ± 0.089 | P 0.202 ± 0.26 | W -0.0557 ± 0.096 | S 0.275 ± 0.14 | Q 0.225 ± 0.23 | D 0.5 ± 0.11 | Y 0.0941 ± 0.11 | T 0.243 ± 0.14 | H 0.179 ± 0.038 | N 0.201 ± 0.12 | E 0.289 ± 0.11
F453: A 0.274 ± 0.29 | C 0.283 ± 0.1 | D 0.307 ± 0.1
A452: G 0.775 ± 0.21 | F 0.934 ± 0.055 | V 0.915 ± 0.25 | T 0.973 ± 0.13 | C 1.13 ± 0.14 | L 0.666 ± 0.65 | S 1.04 ± 0.19 | R 0.86 ± 0.35 | D 0.712 ± 0.14 | M 0.473 ± 0.13 | K 0.517 ± 0.12 | H 0.816 ± 0.12 | P 0.719 ± 0.14 | E 1.54 ± 0.056
L444: Y 0.814 ± 0.26 | Q 0.642 ± 0.092 | F 0.489 ± 0.068 | I 1.08 ± 0.18 | W 0.452 ± 0.12 | H 1.18 ± 0.073 | K 0.847 ± 0.12 | N 0.882 ± 0.43 | D 1.55 ± 0.075 | A 0.718 ± 0.21 | C 1.96 ± 0.078 | S 1.09 ± 0.34 | M -0.874 ± 0.42 | P 0.0281 ± 0.11 | E 0.903 ± 0.13 | V 1.13 ± 0.18 | R 1.17 ± 0.17 | T 0.477 ± 0.063 | G 1.27 ± 0.24
V443: L 0.596 ± 0.25 | H 1.16 ± 0.069 | Y 0.882 ± 0.17 | Q 0.368 ± 0.051 | M 1.29 ± 0.095 | P 1.15 ± 0.18 | D 0.0282 ± 0.049 | C 1.15 ± 0.15 | A 0.969 ± 0.35 | E 1.12 ± 0.15 | F 0.581 ± 0.22 | T 0.921 ± 0.095 | G 1.13 ± 0.13 | S 0.937 ± 0.33 | I 0.968 ± 0.28 | R 0.0498 ± 0.11 | W 0.235 ± 0.036 | N 0.847 ± 0.14 | K 0.0676 ± 0.097
